Data published in paper PMC2583301.

B1: yNap1(74-365) (domain or fragment)
chain: LGSLVGQDSGYVGGLPKNVKEKLLSLKTLQSELFEVEKEFQVEMFELENKFLQKYKPIWEQRSRIISGQEQPKPEQIAKGQEIVESLNETELLVDEEEKAQNDSEEEQVKGIPSFWLTALENLPIVCDTITDRDAEVLEYLQDIGLEYLTDGRPGFKLLFRFDSSANPFFTNDILCKTYFYQKELGYSGDFIYDHAEGCEISWKDNAHNVTVDLEMRKQRNKTTKQVRTIEKITPIESFFNFFDPPKIQNEDQDEELEEDLEERLALDYSIGEQLKDKLIPRAVDWFTGAAL
B2: yNap1(74-417) (domain or fragment)
chain: LGSLVGQDSGYVGGLPKNVKEKLLSLKTLQSELFEVEKEFQVEMFELENKFLQKYKPIWEQRSRIISGQEQPKPEQIAKGQEIVESLNETELLVDEEEKAQNDSEEEQVKGIPSFWLTALENLPIVCDTITDRDAEVLEYLQDIGLEYLTDGRPGFKLLFRFDSSANPFFTNDILCKTYFYQKELGYSGDFIYDHAEGCEISWKDNAHNVTVDLEMRKQRNKTTKQVRTIEKITPIESFFNFFDPPKIQNEDQDEELEEDLEERLALDYSIGEQLKDKLIPRAVDWFTGAALEFEFEEDEEEADEDEDEEEDDDHGLEDDDGESAEEQDDFAGRPEQAPECKQS
B3: yNap1(1-365) (domain or fragment)
chain: MSDPIRTKPKSSMQIDNAPTPHNTPASVLNPSYLKNGNPVRAQAQEQDDKIGTINEEDILANQPLLLQSIQDRLGSLVGQDSGYVGGLPKNVKEKLLSLKTLQSELFEVEKEFQVEMFELENKFLQKYKPIWEQRSRIISGQEQPKPEQIAKGQEIVESLNETELLVDEEEKAQNDSEEEQVKGIPSFWLTALENLPIVCDTITDRDAEVLEYLQDIGLEYLTDGRPGFKLLFRFDSSANPFFTNDILCKTYFYQKELGYSGDFIYDHAEGCEISWKDNAHNVTVDLEMRKQRNKTTKQVRTIEKITPIESFFNFFDPPKIQNEDQDEELEEDLEERLALDYSIGEQLKDKLIPRAVDWFTGAAL

The binders below were run against H2A/H2B(T112C) dimer, H2B labelled with Alexa dye (Xenopus laevis) (UniProt P06897) (assay: other fluorescence titration).

Row | Kd | Kd app (yNap1 counted as dimer) | Binder
1 | 10 nM | 5.4 nM | B1
2 | 1.7 nM | 0.9 nM | B2
3 | 2.1 nM | 1 nM | B3
